Literature values, collected in publication PMC7490560.
“And” between values parts separate entries of the source, which are not always exact repeats. Identical values can stand only once.

Molecular target: KEAP1 (Homo sapiens) (UniProt Q14145)
Sequence (Q14145 whole entry): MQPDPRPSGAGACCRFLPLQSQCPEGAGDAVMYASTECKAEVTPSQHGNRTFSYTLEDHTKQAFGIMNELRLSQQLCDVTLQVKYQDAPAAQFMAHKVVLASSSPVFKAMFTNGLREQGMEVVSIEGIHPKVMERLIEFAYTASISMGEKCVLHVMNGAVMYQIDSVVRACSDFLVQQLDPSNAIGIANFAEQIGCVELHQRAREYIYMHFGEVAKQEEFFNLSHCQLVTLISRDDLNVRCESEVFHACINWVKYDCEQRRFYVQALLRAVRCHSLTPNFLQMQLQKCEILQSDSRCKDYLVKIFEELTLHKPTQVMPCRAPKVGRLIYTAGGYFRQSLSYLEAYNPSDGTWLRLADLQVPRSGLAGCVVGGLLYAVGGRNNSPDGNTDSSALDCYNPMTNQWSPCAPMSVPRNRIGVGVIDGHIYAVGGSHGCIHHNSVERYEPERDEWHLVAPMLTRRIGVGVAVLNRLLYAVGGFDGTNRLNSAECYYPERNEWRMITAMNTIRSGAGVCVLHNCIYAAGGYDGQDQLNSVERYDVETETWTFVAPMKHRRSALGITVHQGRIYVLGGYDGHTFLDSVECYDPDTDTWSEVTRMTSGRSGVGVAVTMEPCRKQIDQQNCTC

Sequence of NRF2 (Q16236 whole entry): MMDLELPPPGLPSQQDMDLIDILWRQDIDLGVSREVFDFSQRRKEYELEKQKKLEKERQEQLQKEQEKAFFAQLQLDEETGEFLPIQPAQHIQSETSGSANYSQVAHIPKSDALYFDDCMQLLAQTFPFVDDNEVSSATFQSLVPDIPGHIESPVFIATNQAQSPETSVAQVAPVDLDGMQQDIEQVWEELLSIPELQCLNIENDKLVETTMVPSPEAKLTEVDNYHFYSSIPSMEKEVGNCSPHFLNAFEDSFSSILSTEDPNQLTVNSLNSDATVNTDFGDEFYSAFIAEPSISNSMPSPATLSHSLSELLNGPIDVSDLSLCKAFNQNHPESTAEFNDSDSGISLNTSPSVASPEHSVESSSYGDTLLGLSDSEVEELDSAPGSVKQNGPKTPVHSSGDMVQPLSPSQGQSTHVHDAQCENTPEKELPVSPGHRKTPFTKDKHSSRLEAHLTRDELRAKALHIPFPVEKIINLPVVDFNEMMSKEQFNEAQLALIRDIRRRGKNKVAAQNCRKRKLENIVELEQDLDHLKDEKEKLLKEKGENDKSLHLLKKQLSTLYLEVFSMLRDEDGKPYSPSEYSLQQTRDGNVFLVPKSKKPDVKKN

- Kd: 580 nM and 167 nM
Substance: NRF2 (from UniProt Q16236)
